Target: T1, integrin α11 (ITGA11) (human, UniProt Q9UKX5 23-1188)
T1 sequence (looked up): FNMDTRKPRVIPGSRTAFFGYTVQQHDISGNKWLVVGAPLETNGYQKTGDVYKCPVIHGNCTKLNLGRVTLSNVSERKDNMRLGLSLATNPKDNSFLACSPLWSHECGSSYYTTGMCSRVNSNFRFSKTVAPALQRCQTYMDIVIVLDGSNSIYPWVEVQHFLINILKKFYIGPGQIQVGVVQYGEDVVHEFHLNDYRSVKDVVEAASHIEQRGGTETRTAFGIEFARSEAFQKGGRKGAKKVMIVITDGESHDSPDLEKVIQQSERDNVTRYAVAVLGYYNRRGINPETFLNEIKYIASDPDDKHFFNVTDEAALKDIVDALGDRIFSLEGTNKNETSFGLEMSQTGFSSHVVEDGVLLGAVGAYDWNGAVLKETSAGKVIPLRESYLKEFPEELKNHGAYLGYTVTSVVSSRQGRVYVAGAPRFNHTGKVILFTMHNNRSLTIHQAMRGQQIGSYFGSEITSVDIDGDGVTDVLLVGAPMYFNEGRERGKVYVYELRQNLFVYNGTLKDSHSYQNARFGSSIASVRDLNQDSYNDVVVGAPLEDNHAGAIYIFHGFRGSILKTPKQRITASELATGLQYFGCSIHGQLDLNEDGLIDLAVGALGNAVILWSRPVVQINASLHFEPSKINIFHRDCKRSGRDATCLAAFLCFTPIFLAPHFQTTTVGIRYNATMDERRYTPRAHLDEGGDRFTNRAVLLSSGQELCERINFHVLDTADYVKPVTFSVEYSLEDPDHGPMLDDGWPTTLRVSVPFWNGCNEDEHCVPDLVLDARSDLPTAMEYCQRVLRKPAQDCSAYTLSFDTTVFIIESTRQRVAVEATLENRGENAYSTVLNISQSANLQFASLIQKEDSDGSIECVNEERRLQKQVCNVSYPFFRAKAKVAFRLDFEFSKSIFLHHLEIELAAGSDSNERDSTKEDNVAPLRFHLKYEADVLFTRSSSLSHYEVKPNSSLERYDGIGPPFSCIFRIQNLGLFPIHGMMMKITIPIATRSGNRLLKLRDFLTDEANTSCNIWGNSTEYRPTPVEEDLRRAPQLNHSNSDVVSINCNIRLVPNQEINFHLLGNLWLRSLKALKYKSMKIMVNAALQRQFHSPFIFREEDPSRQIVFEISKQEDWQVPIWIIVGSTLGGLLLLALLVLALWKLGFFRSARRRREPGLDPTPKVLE
Experiment: cell-based or functional assay

B1: anti-ITGA11 antibody #014 (antibody, mouse IgG2a, kappa, V domains shown)
VH: EVQLVESGGGLVQPGGSLRLSCAASGFNLTSSYIHWVRQAPGKGLEWVASISSHSSYTYYADSVKGRFTISADTSKNTAYLQMNSLRAEDTAVYYCARYWYYSAWALDYWGQGTLVTVSS
VL: DIQMTQSPSSLSASVGDRVTITCRASQSVSSAVAWYQQKPGKAPKLLIYSASSLYSGVPSRFSGSRSGTDFTLTISSLQPEDFATYYCQQSAPYSSLITFGQGTKVEIKR
luminescence intensity ratio, ADCC Reporter Bioassay kit, non-senescent IMR-90 cell, relative to the cell without antibody regarded as 1: 1.4 ratio | luminescence intensity ratio, ADCC Reporter Bioassay kit, senescent IMR-90 cell, relative to the cell without antibody regarded as 1: 4.7 ratio

— patent US20250163158A1 (Astellas, published 2025)
